Target: T1, Methylobacterium extorquens (Mex) PqqE (Methylobacterium extorquens, UniProt P71517 1-384)
T1 sequence (looked up): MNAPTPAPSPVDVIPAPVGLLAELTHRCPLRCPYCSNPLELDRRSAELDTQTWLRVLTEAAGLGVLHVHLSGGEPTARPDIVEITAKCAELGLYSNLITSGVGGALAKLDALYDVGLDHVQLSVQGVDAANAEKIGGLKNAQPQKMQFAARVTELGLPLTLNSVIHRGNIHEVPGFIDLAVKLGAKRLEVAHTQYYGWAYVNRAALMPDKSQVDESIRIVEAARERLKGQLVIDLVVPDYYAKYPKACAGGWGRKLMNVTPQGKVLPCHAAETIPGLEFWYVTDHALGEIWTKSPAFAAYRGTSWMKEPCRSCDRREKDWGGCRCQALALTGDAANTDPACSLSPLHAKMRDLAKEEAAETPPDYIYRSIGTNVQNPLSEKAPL
Assay: native MS

stoichiometry N: 1
B1: Methylobacterium extorquens (Mex) PqqD (domain or fragment, Methylobacterium extorquens AM1, UniProt Q49150 280-372, looked up)
chain: EPTAFSGSDVPRLPRGVRLRFDEVRNKHVLLAPERTFDLDDNAVAVLKLVDGRNTVSQIAQILGQTYDADPAIIEADILPMLAGLAQKRVLER
